The values that follow are results of earlier work, collected in publication PMC5466068.

One may read the pKa as the pH at which an ionisable group is half protonated.

For this series, the target named is Cys32 (UniProt position 32, FSATWCGPCKM). The experiment in a line: NMR. The conditions noted are these: not stated (a free thiol at the catalytic Cys implies the reduced form).

Regarding Thioredoxin-1 (Thrx-1) (Homo sapiens), the pKa is given as approximately 6.3.
